# Test results as given in the supplement of paper PMC5998384.
# Experiments:
# HeLa Kyoto [1] = assay: solubility in G1/S (NP-40 vs SDS abundance) (log2 ratio); higher = more soluble; settings: cell cycle stage: G1/S
# HeLa Kyoto [2] = assay: thermal stability score vs G1/S (z-score of summed log2 fold changes over temperatures); higher = more thermally stable than in G1/S
# HeLa Kyoto [3] = assay: solubility change mitosis vs G1/S (difference of NP-40 vs SDS log2 ratios) (log2 ratio difference); higher = more soluble in mitosis
# [4] = cell cycle stage: early G1 (4.5 h after nocodazole release)
# 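Wherever solubility change mitosis vs G1/S (difference of NP-40 vs SDS log2 ratios) is given: synchronized HeLa Kyoto cells (double thymidine block for G1/S, nocodazole release for mitosis), protein amounts in NP-40 versus SDS lysates quantified by mass spectrometry, three biological replicates.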
# 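Wherever solubility in G1/S (NP-40 vs SDS abundance) is given: HeLa Kyoto cells arrested at G1/S by double thymidine block, proteins quantified by TMT10plex mass spectrometry in mild NP-40 versus SDS extracts, three biological replicates.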
# 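Wherever thermal stability score vs G1/S (z-score of summed log2 fold changes over temperatures) is given: synchronized HeLa Kyoto cells, proteins quantified by TMT10plex mass spectrometry, three biological replicates, mitosis taken 0.5 h after nocodazole release, G1/S directly after double thymidine block.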
# Sequence of NOS1AP (chain, as listed by the source): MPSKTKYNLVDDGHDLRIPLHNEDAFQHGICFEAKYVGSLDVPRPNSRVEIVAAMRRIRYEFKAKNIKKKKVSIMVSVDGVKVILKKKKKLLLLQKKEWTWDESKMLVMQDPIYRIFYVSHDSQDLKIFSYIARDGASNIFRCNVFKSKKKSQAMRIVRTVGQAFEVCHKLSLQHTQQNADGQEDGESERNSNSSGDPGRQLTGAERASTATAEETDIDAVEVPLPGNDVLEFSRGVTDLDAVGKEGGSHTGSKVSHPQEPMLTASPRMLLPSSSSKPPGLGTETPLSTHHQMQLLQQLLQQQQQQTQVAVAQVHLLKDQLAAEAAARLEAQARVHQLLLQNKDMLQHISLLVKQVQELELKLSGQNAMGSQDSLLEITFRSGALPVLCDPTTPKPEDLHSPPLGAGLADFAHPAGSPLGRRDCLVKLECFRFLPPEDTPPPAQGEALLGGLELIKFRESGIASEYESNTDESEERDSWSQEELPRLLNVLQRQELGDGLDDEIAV
Substance,solubility in G1/S (log2) (HeLa Kyoto [1]),thermal stability score (HeLa Kyoto [2]; [4]),thermal stability score (HeLa Kyoto [2]; cell cycle stage: mitosis),solubility change mitosis (log2) (HeLa Kyoto [3])
MRPPACWWLLAPPALLALLTCSLAFGLASEDTKKEVKQSQDLEKSGISRKNDIDLKGIVFVIQSQSNSFHAKRAEQLKKSILKQAADLTQELPSVLLLHQLAKQEGAWTILPLLPHFSVTYSRNSSWIFFCEEETRIQIPKLLETLRRYDPSKEWFLGKALHDEEATIIHHYAFSENPTVFKYPDFAAGWALSIPLVNKLTKRLKSESLKSDFTIDLKHEIALYIWDKGGGPPLTPVPEFCTNDVDFYCATTFHSFLPLCRKPVKKKDIFVAVKTCKKFHGDRIPIVKQTWESQASLIEYYSDYTENSIPTVDLGIPNTDRGHCGKTFAILERFLNRSQDKTAWLVIVDDDTLISISRLQHLLSCYDSGEPVFLGERYGYGLGTGGYSYITGGGGMVFSREAVRRLLASKCRCYSNDAPDDMVLGMCFSGLGIPVTHSPLFHQARPVDYPKDYLSHQVPISFHKHWNIDPVKVYFTWLAPSDEDKARQETQKGFREEL [B3GLCT],0.0765,1.99,2.59,-0.0692
MSWLFGVNKGPKGEGAGPPPPLPPAQPGAEGGGDRGLGDRPAPKDKWSNFDPTGLERAAKAARELEHSRYAKEALNLAQMQEQTLQLEQQSKLKEYEAAVEQLKSEQIRAQAEERRKTLSEETRQHQARAQYQDKLARQRYEDQLKQQQLLNEENLRKQEESVQKQEAMRRATVEREMELRHKNEMLRVETEARARAKAERENADIIREQIRLKASEHRQTVLESIRTAGTLFGEGFRAFVTDRDKVTATVAGLTLLAVGVYSAKNATAVTGRFIEARLGKPSLVRETSRITVLEALRHPIQVSRRLLSRPQDVLEGVVLSPSLEARVRDIAIATRNTKKNRGLYRHILLYGPPGTGKTLFAKKLALHSGMDYAIMTGGDVAPMGREGVTAMHKLFDWANTSRRGLLLFMDEADAFLRKRATEEISKDLRATLNAFLYHMGQHSNKFMLVLASNLPEQFDCAINSRIDVMVHFDLPQQEERERLVRLHFDNCVLKPATEGKRRLKLAQFDYGRKCSEVARLTEGMSGREIAQLAVSWQATAYASKDGVLTEAMMDACVQDAVQQYRQKMRWLKAEGPGRGVEHPLSGVQGETLTSWSLATDPSYPCLAGPCTFRICSWMGTGLCPGPLSPRMSCGGGRPFCPPGHPLL [ATAD3B],-0.105,0.595,0.439,-0.00813
MPFLHGFRRIIFEYQPLVDAILGSLGIQDPERQESLDRPSYVASEESRILVLTELLERKAHSPFYQEGVSNALLKMAELGLTRAADVLLRHGANLNFEDPVTYYTALHIAVLRNQPDMVELLVHHGADVNRRDRIHESSPLDLASEEPERLPCLQRLLDLGADVNAADKHGKTALLHALASSDGVQIHNTENIRLLLEGGADVKATTKDGDTVFTCIIFLLGETVGGDKEEAQMINRFCFQVTRLLLAHGADPSECPAHESLTHICLKSFKLHFPLLRFLLESGAAYNCSLHGASCWSGFHIIFERLCSHPGCTEDESHADLLRKAETVLDLMVTNSQKLQLPENFDIHPVGSLAEKIQALHFSLRQLESYPPPLKHLCRVAIRLYLQPWPVDVKVKALPLPDRLKWYLLSEHSGSVEDDI [ASB6],0.206,0.0535,0.637,0.0228
NOS1AP,-0.0474,0.688,0.322,-0.0377
MLLWPLRGWAARALRCFGPGSRGSPASGPGPRRVQRRAWPPDKEQEKEKKSVICVEGNIASGKTTCLEFFSNATDVEVLTEPVSKWRNVRGHNPLGLMYHDASRWGLTLQTYVQLTMLDRHTRPQVSSVRLMERSIHSARYIFVENLYRSGKMPEVDYVVLSEWFDWILRNMDVSVDLIVYLRTNPETCYQRLKKRCREEEKVIPLEYLEAIHHLHEEWLIKGSLFPMAAPVLVIEADHHMERMLELFEQNRDRILTPENRKHCP [TK2],-0.273,-2.93,-2.11,0.0925
MAAAAGDGGGEGGAGLGSAAGLGPGPGLRGQGPSAEAHEGAPDPMPAALHPEEVAARLQRMQRELSNRRKILVKNLPQDSNCQEVHDLLKDYDLKYCYVDRNKRTAFVTLLNGEQAQNAIQMFHQYSFRGKDLIVQLQPTDALLCITNVPISFTSEEFEELVRAYGNIERCFLVYSEVTGHSKGYGFVEYMKKDFAAKARLELLGRQLGASALFAQWMDVNLLASELIHSKCLCIDKLPSDYRDSEELLQIFSSVHKPVFCQLAQDEGSYVGGFAVVEYSTAEQAEEVQQAADGMTIKGSKVQVSFCAPGAPGRSTLAALIAAQRVMHSNQKGLLPEPNPVQIMKSLNNPAMLQVLLQPQLCGRAVKPAVLGTPHSLPHLMNPSISPAFLHLNKAHQSSVMGNTSNLFLQNLSHIPLAQQQLMKFENIHTNNKPGLLGEPPAVVLQTALGIGSVLPLKKELGHHHGEAHKTSSLIPTQTTITAGMGMLPFFPNQHIAGQAGPGHSNTQEKQPATVGMAEGNFSGSQPYLQSFPNLAAGSLLVGHHKQQQSQPKGTEISSGAASKNQTSLLGEPPKEIRLSKNPYLNLASVLPSVCLSSPASKTTLHKTGIASSILDAISQGSESQHALEKCIAYSPPFGDYAQVSSLRNEKRGSSYLISAPEGGSVECVDQHSQGTGAYYMETYLKKKRVY [RAVER2],0.172,1.56,1.81,-0.203
MATIEEIAHQIIEQQMGEIVTEQQTGQKIQIVTALDHNTQGKQFILTNHDGSTPSKVILARQDSTPGKVFLTTPDAAGVNQLFFTTPDLSAQHLQLLTDNSPDQGPNKVFDLCVVCGDKASGRHYGAVTCEGCKGFFKRSIRKNLVYSCRGSKDCIINKHHRNRCQYCRLQRCIAFGMKQDSVQCERKPIEVSREKSSNCAASTEKIYIRKDLRSPLTATPTFVTDSESTRSTGLLDSGMFMNIHPSGVKTESAVLMTSDKAESCQGDLSTLANVVTSLANLGKTKDLSQNSNEMSMIESLSNDDTSLCEFQEMQTNGDVSRAFDTLAKALNPGESTACQSSVAGMEGSVHLITGDSSINYTEKEGPLLSDSHVAFRLTMPSPMPEYLNVHYIGESASRLLFLSMHWALSIPSFQALGQENSISLVKAYWNELFTLGLAQCWQVMNVATILATFVNCLHNSLQQDKMSTERRKLLMEHIFKLQEFCNSMVKLCIDGYEYAYLKAIVLFSPDHPSLENMEQIEKFQEKAYVEFQDYITKTYPDDTYRLSRLLLRLPALRLMNATITEELFFKGLIGNIRIDSVIPHILKMEPADYNSQIIGHSI [NR2C1],0.173,0.319,0.185,-0.0241
MLRGPWRQLWLFFLLLLPGAPEPRGASRPWEGTDEPGSAWAWPGFQRLQEQLRAAGALSKRYWTLFSCQVWPDDCDEDEEAATGPLGWRLPLLGQRYLDLLTTWYCSFKDCCPRGDCRISNNFTGLEWDLNVRLHGQHLVQQLVLRTVRGYLETPQPEKALALSFHGWSGTGKNFVARMLVENLYRDGLMSDCVRMFIATFHFPHPKYVDLYKEQLMSQIRETQQLCHQTLFIFDEAEKLHPGLLEVLGPHLERRAPEGHRAESPWTIFLFLSNLRGDIINEVVLKLLKAGWSREEITMEHLEPHLQAEIVETIDNGFGHSRLVKENLIDYFIPFLPLEYRHVRLCARDAFLSQELLYKEETLDEIAQMMVYVPKEEQLFSSQGCKSISQRINYFLS [TOR3A],0.0484,2.36,1.03,-0.118
MPGRSSSNSGSTGFISFSGVESALSSLKNFQACINSGMDTASSVALDLVESQTEVSSEYSMDKAMVEFATLDRQLNHYVKAVQSTINHVKEERPEKIPDLKLLVEKKFLALQSKNSDADFQNNEKFVQFKQQLKELKKQCGLQADREADGTEGVDEDIIVTQSQTNFTCPITKEEMKKPVKNKVCGHTYEEDAIVRMIESRQKRKKKAYCPQIGCSHTDIRKSDLIQDEALRRAIENHNKKRHRHSE [NSMCE2],-0.0327,-0.691,-0.266,0.0514
MSQVMSSPLLAGGHAVSLAPCDEPRRTLHPAPSPSLPPQCSYYTTEGWGAQALMAPVPCMGPPGRLQQAPQVEAKATCFLPSPGEKALGTPEDLDSYIDFSLESLNQMILELDPTFQLLPPGTGGSQAELAQSTMSMRKKEESEALDIKYIEVTSARSRCHDGPQHCSSPSVTPPFGSLRSGGLLLSRDVPRETRSSSESLIFSGNQGRGHQRPLPPSEGLSPRPPNSPSISIPCMGSKASSPHGLGSPLVASPRLEKRLGGLAPQRGSRISVLSASPVSDVSYMFGSSQSLLHSSNSSHQSSSRSLESPANSSSSLHSLGSVSLCTRPSDFQAPRNPTLTMGQPRTPHSPPLAKEHASSCPPSITNSMVDIPIVLINGCPEPGSSPPQRTPGHQNSVQPGAASPSNPCPATRSNSQTLSDAPFTTCPEGPARDMQPTMKFVMDTSKYWFKPNITREQAIELLRKEEPGAFVIRDSSSYRGSFGLALKVQEVPASAQSRPGEDSNDLIRHFLIESSAKGVHLKGADEEPYFGSLSAFVCQHSIMALALPCKLTIPQRELGGADGASDSTDSPASCQKKSAGCHTLYLSSVSVETLTGALAVQKAISTTFERDILPTPTVVHFKVTEQGITLTDVQRKVFFRRHYPLTTLRFCGMDPEQRKWQKYCKPSWIFGFVAKSQTEPQENVCHLFAEYDMVQPASQVIGLVTALLQDAERM [TNS4],0.00637,-0.0391,2.56,-0.0286
